Results taken from article PMC12081870 (Communications Biology, 2025).

Legend:
[1] = molecular target: Las17 PPR-N fragment (residues 300-422), wild type (S. cerevisiae) (UniProt Q12446); test: BLI; Octet R2 (Sartorius); Octet NTA Biosensors or Octet GST Biosensors, which partner was loaded is not stated; repeated three times; the constant of SH3#1-3 is called apparent
[2] = test system: Las17 and las17 P387A expressing yeast strains; test: Latrunculin-A halo assay on yeast; assay type: cell-based, Saccharomyces cerevisiae; details: 10 µl latrunculin-A disc, halo assay, 5 repeats
Experimental: Supplementary Information.
Methods used in Supplementary Data
Yeast strains, growth and staining
Yeast plasmids used in this study are listed in Supplementary table 1 and yeast strains used in Supplementary table 2. Unless stated otherwise, cells were grown with rotary shaking at 30°C in liquid YPD medium (1% yeast extract, 2% Bacto-peptone, 2% glucose supplemented with 40 μg/ml adenine) or in synthetic medium (0.67% yeast nitrogen base, 2% glucose) with appropriate supplements. Growth assays used solid medium with 2% agar added to above. All strains carrying fluorescent tags have growth properties similar to isogenic control strains with the exception of strains carrying dual reporters where lifetimes were longer for both wild type and mutant strains (in Figure 9D). Point mutations in LAS17 were generated using site directed mutagenesis (Agilent). DNA cassettes carrying mutations for integration were transformed into KAY1801. Mutant colonies were counter-selected on minimal medium, containing 0.005% uracil and 0.1% 5’-Fluoroorotic Acid (5-FOA; Melford labs). […]
expressing strains on plates on which a disc carrying 10 µl of latrunculin-A of varying concentrations was placed (white disc). […] They were then scored according to the extent of uptake and categorised according to the key shown. >100 cells were visualised for each strain in each of 3 independent experiments. […]

G-actin [3] = test: MST, Las17 300-422 P387A / P388A to labelled G-actin; assay type: binding, rabbit; details: three repeats, not statistically significant
Source text: (§1) A Purified individual GST-tagged Sla1 SH3 domains were used to probe a Celluspot array consisting of a series of 12 amino acid peptides starting with residue 181, and subsequent peptides starting at two amino acid intervals, up to amino acid 540. Binding of GST-Sla1 SH3 to the array was identified by further probing of HRP-tagged anti-GST and subsequent visualisation using chemiluminescence. […] Error bars are standard error of mean.
The small reduction was not found to be statistically significant over three repeats.
(§2) Microscale Thermophoresis (MST) assays were performed as described previously. Briefly, rabbit muscle actin in G-buffer minus DTT was […] using Monolith NT^TM Protein Labelling Kit RED-Malemide (NanoTemper Technologies, Munich, Germany). […] Each reaction was then loaded into Monolith NT.115 Premium Treated Capillaries (NanoTemper Technologies) and thermophoresis was measured in a Monolith NT.115 Microscale Thermophoresis device (NanoTemper Technologies). Thermophoresis was measured at 20% red LED power and 40% IR laser power at 22°C. Fnorm was calculated from the ratio of fluorescence before heating and after the new equilibrium had been reached. […] Each experiment was carried out three separate times with protein from different protein preparations and mean ± SE shown except for Fig. 7a where mean ± SD is shown.

actin = test: Pyrene actin assay, actin polymerisation in the absence of Arp2/3; assay type: biochemical, rabbit; details: no Arp2/3, 300 nM fragment, 3 µM actin
Experimental: 300 nM each fragment; 3 µM actin. […] Error bars are standard error of mean.
Rabbit skeletal muscle actin was gel filtered as described. Concentrations of G-actin produced and used in experiments were in the range 35–65 µM.
(§3) Fluorometry assays were performed as described previously. 370 μl assays used 3 μM actin as indicated unless otherwise specified. Pyrene-actin was added to 5%, mixed thoroughly, and added to the fluorometry cuvette. Polymerization salts, 10× KME (500 mM KCl, 10 mM MgCl2, 10 mM EGTA, 100 mM Tris-HCl [pH 8.0]) were mixed with fragments or G buffer to give final concentration of 0.5× KME before reading fluorescence. […] Experiments were carried out three separate times with different protein preparations and a representative graph shown.

[4] = test system: Las17 PPR-N fragment (residues 300-422); test: Biolayer Interferometry (BLI), Sla1 SH3 domains to Las17 PPR-N; assay type: binding, Saccharomyces cerevisiae; details: Biolayer Interferometry
Source text: (§4) To investigate binding characteristics of the SH3 domains further, Sla1 SH3 protein domains were purified. Three Sla1 SH3 single domains, tandem domains Sla1 SH3#1&2, Sla1 SH3#1&2 W108A (in which the W108A mutation prevents proline motif binding by SH3#2 but not SH3#1) and a fragment with all three SH3 domains were expressed recombinantly and purified. […] This outcome is in line with original research of Rodal and colleagues and with more recent studies of avidity developed by Williamson, which highlighted the importance of tandem binding SH3 domains[13],[27].
Biolayer Interferometry (BLI) assays were performed using an OctetⓇ R2 (Sartorius). Protein samples were placed into the wells of a polystyrene plate (ProxiPlateTM, Perkin Elmer) and binding measured either with Octet NTA Biosensors or Octet GST Biosensors. Screening assays were performed to determine the optimum loading concentration and time for each binding pair to ensure that the probe was not saturated. All experiments were repeated three times, each time with newly prepared protein. Analysis and visualisation were performed using GraphPad Prism 10.0.2.

Las17 = test: Microscale thermophoresis, Sla1 SH3#2 to Las17; assay type: binding, Saccharomyces cerevisiae; details: could not be saturated within the concentration range
Source text: as §4, §2

[5] = test system: Las17 12mer peptides / GST-Sla1 SH3 domains; test: Peptide spot array (Celluspot) of Las17 12mers probed with GST-Sla1 SH3 domains; assay type: binding, Saccharomyces cerevisiae; details: GST-Sla1 SH3 domain on 12mer array, 2-residue offset, anti-GST HRP, chemiluminescence
Experimental: as §1
They were incubated with GST fused SH3 domains of Sla1 or with GST alone, as described in ref.[57]. Membranes were probed with HRP tagged anti-GST, and the presence of SH3-GST fusion protein was detected with ECL chemiluminescent detection solution (Thermo Fisher Scientific).

[6] = test system: Las17-Arp2/3 mediated actin polymerisation; details: 15 nM Las17, 1 µM Sla1 SH3 domains, ref [13]; cited from earlier work
Source text: In Sla1 the first two SH3 domains are immediately juxtaposed with no linker. There are then 236 residues before the third SH3 domain (Fig. 1A).

G-actin [7] = test: MST, Las17 300-422 to labelled G-actin in presence or absence of Sla1 SH3#1-3 (competition); assay type: binding, rabbit; details: Sla1 SH3#1-3 4.5 µM, actin 50 nM, Las17(300–422) 0.29-9.5 µM
Experimental: The experiment was then repeated with the addition of Sla1 SH3#1-3 fragment at 4.5 µM.
Error bars are standard deviation.
Microscale Thermophoresis (MST) assays were performed as described previously[15]. Briefly, rabbit muscle actin in G-buffer minus DTT was lysine labelled using Monolith NT^TM Protein Labelling Kit RED-Malemide (NanoTemper Technologies, Munich, Germany). […] Each reaction was then loaded into Monolith NT.115 Premium Treated Capillaries (NanoTemper Technologies) and thermophoresis was measured in a Monolith NT.115 Microscale Thermophoresis device (NanoTemper Technologies). Thermophoresis was measured at 20% red LED power and 40% IR laser power at 22°C. Fnorm was calculated from the ratio of fluorescence before heating and after the new equilibrium had been reached.

[8] = test system: Las17-Arp2/3 mediated actin polymerisation; test: Pyrene actin assay, inhibition of Las17-Arp2/3 mediated actin polymerisation by Sla1 SH3 domains; assay type: biochemical; details: Actin 3 µM, Las17 300 nM, Sla1 SH3 domains 300 nM each (1:1), with Arp2/3
Experimental: SH3 domains of Sla1 are numbered #1, #2 and #3. […] PP in pink boxes indicate poly-proline tracts in this region. Other regions of Las17 are included but not to scale. B Representative pyrene actin assays show inhibition of Las17-Arp2/3 mediated actin polymerisation by Sla1-SH3 domains when added as separate domains (orange #1, green #2 or cyan #3) or on a single peptide (red). […] Sla1 SH3#1 (aa 3-68), SH3#3 (aa 354-413), SH3#1-2 (aa 5-131), SH3#1-3 (aa 5-413).
as §3

In the case of Sla1 SH3#1&2 W108A (domain or fragment), the Kd [1] is reported as 7.4 µM.

For `C/C1=C/C(=O)O[C@@H]2C[C@@H](CC[C@H](C)/C=C\C=C\CC1)O[C@@](O)([C@@H]1CSC(=O)N1)C2` [latrunculin-A, reference compound], the “increase in Lat-A sensitivity of las17 P387A compared to wild type” value [2] was 7 fold.

For “Las17 (300–422) P387A: Las17 (300–422) with P387A mutation”, the “effect on actin binding” value (G-actin [3]) was “little change in actin binding”.

In the case of “Las17 (300–422) P388A: Las17 (300–422) with P388A mutation”, the “effect on actin binding” value (G-actin [3]) is reported as “little change in actin binding”.

In the case of “Las17(342–392): minimal Las17 fragment with two arginine-pair actin sites, left on GST tag”, the “stimulation of Arp2/3-independent actin polymerisation” value (actin) is reported as “unable to stimulate Arp2/3-independent actin polymerisation”.

For “Las17(300–633): Las17 fragment containing both PPR and VCA”, the “stimulation of Arp2/3-independent actin polymerisation” value (actin) was “able to stimulate actin polymerisation in the absence of Arp2/3”.

B1: Sla1 SH3#2: second SH3 domain of Sla1, GST-Sla1 SH3#2 in pGEX4T1 (protein)
chain: PVLKKVRAIYDYEQVQNADEELTFHENDVFDVFDDKDADWLLVKSTVSNEFGFIPGNYVEPENG
modifications: left off: GST, end not stated, cleaved
notes: second SH3 domain of Sla1, GST-Sla1 SH3#2 in pGEX4T1
With B1 the binding ([4]; result in words) was “showed no binding”, the binding (Las17) was “weak binding was detected” and the “binding to Las17 peptide spots” value [5] was “only showed weak binding to spots”. The “inhibition of actin polymerisation activity” value [6] was “about 80%”.

B2: Sla1 SH3#1-3: SH3#1-3 (aa 5-413), fragment with all three SH3 domains (protein)
chain: LGIYRAVYAYEPQTPEELAIQEDDLLYLLQKSDIDDWWTVKKRVIGSDSEEPVGLVPSTYIEEAPVLKKVRAIYDYEQVQNADEELTFHENDVFDVFDDKDADWLLVKSTVSNEFGFIPGNYVEPENGSTSKQEQAPAAAEAPAATPAAAPASAAVLPTNFLPPPQHNDRARMMQSKEDQAPDEDEEGPPPAMPARPTATTETTDATAAAVRSRTRLSYSDNDNDDEEDDYYYNSNSNNVGNHEYNTEYHSWNVTEIEGRKKKKAKLSIGNNKINFIPQKGTPHEWSIDKLVSYDNEKKHMFLEFVDPYRSLELHTGNTTTCEEIMNIIGEYKGASRDPGLREVEMASKSKKRGIVQYDFMAESQDELTIKSGDKVYILDDKKSKDWWMCQLVDSGKSGLVPAQFIEPV
modifications: left off: GST, end not stated, cleaved
notes: SH3#1-3 (aa 5-413), fragment with all three SH3 domains
In the case of B2, the Kd ([4]; Octet R2, Las17 (aa 300-422), three repeats with newly prepared protein, read-out: binding affinity (Kd)) is reported as 0.039 µM, the “fold change in apparent Kd of actin for Las17” value (G-actin [7]) is reported as 40 fold and the “fold change in apparent Kd of actin for Las17” value (G-actin [7]; listed as Sla1) is reported as 40.6 fold. The “inhibition of Las17-Arp2/3 mediated actin polymerisation” value [8] was “substantial inhibition of actin polymerisation” and the “inhibition of actin polymerisation activity” value [6] was “about 85%”.
